Source: patent US20080166364A1 (COVX TECHNOLOGY IRELAND, published 2008)
Non-standard residues stand in square brackets, D forms with d. No end group written: not given here. Phe(4-NO2) = N[C@@H](Cc1ccc([N+](=O)[O-])cc1)C(=O)O; Phe(4-COOH) = N[C@@H](Cc1ccc(C(=O)O)cc1)C(=O)O; Bpa = N[C@@H](Cc1ccc(C(=O)c2ccccc2)cc1)C(=O)O; Hyp = O=C(O)[C@@H]1C[C@@H](O)CN1; 0P linker = not defined here; acyl = not defined here; ThA = thiazolylalanine

T1: human angiopoietin-2 protein (human, UniProt O15123 19-496)
T1 construct: bought; also called Ang-2; Ang2
T1 sequence (looked up): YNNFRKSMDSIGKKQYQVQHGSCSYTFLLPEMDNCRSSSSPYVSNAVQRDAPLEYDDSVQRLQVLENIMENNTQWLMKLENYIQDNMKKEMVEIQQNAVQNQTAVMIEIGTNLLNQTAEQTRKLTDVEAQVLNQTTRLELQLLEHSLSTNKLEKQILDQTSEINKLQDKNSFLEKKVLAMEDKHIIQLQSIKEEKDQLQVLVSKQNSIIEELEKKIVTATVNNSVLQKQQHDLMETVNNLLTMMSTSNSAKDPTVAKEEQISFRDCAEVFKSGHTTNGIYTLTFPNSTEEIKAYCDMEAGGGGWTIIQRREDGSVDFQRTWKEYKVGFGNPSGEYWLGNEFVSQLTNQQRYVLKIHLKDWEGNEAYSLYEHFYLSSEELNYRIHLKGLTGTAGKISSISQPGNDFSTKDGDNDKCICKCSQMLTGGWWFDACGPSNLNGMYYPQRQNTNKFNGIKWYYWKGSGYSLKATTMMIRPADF

B1: Compound 83 (T): targeting peptide plus 0P linker (peptide)
peptide: Ac-QK(Ac)YQPLDEK(Ac)DK(0P linker)TLYDQFMLQQ-NH2
modifications: reading uncertain
notes: C-terminal truncation of 43(a) by 1 residue
B2: Compound 26 (T): targeting peptide plus 0P linker (peptide)
peptide: XKYQPLDELDKTLYDQFMLQQG
modifications: not fully specified; 0P linker at the N-terminus (no acyl cap); C-term NH2 cap
B3: Compound 52 (T): targeting peptide plus 0P linker (peptide)
peptide: QXYQPLDELDXTLYDQFMLQQG
modifications: not fully specified; N-term amido 2-PEG cap; C-term NH2 cap; AcK at 2; 0P linker on K11
B4: Compound 42 (T): targeting peptide plus 0P linker (peptide)
peptide: QXYQPLDELDXTXYDQFMLQQG
modifications: not fully specified; N-term acyl cap; C-term NH2 cap; AcK at 2; 0P linker on K11; HL at 13
B5: Compound 62 (T): targeting peptide plus 0P linker (peptide)
peptide: acyl-QK(Ac)YQPLDEK(Ac)DK(0P linker)TL[Phe(4-COOH)]DQFMLQQG-NH2
modifications: reading uncertain; also: printed as Q(AcK)Y QPL DE(AcK) DK(0P)T L(CF)D QFM LQQ G
B6: Compound 51 (T): targeting peptide plus 0P linker (peptide)
peptide: QXYQPLDELDXTLYDQFMLQQG
modifications: not fully specified; N-term PyC (pyridinyl carboxylate) cap; C-term NH2 cap; AcK at 2; 0P linker on K11
B7: Compound 41 (T): targeting peptide plus 0P linker (peptide)
peptide: QXYQPLDELDXTXYDQFMLQQG
modifications: not fully specified; N-term acyl cap; C-term NH2 cap; AcK at 2; 0P linker on K11; Nva at 13
B8: Compound 48 (T): targeting peptide plus 0P linker (peptide)
peptide: acyl-QK(Ac)YQPLDEK(Ac)DK(0P linker)TL[Phe(4-NO2)]DQFMLQQG-NH2
modifications: reading uncertain; also: printed as Q(AcK)Y QPL DE(AcK) DK(0P)T L(NO2F)D QFM LQQ G
B9: Compound 46 (T): targeting peptide plus 0P linker (peptide)
peptide: acyl-QK(Ac)YQ[Hyp]LDE[ThA]DK(0P linker)TL[Bpa]DQFMLQQG-NH2
modifications: reading uncertain
B10: Compound 45 (T): targeting peptide plus 0P linker (peptide)
peptide: QK(Ac)YQ[Hyp]LDE[ThA]DK(0P linker)TL[Phe(4-NO2)]DQFMLQQG
modifications: not fully specified (N-terminus, C-terminus); printed as Q(AcK)Y Q(HP)L DE(ThA) DK(0P)T L(NO2F)D QFM LQQ G; reading uncertain
B11: Compound 54 (T): targeting peptide plus 0P linker (peptide)
peptide: QXYQPLDELDXTLYDQFMLQQG
modifications: N-term acyl cap; C-term NH2 cap; AcK at 2; Dab at 11 carrying the 0P linker
B12: Compound 47 (T): targeting peptide plus 0P linker (peptide)
peptide: acyl-QK(Ac)YQ[Hyp]LDE[ThA]DK(0P linker)TL[Phe(4-COOH)]DQFMLQQG-NH2
modifications: reading uncertain; also: printed as Q(AcK)Y Q(HP)L DE(ThA) DK(0P)T L(CO2H)FD QFM LQQ G
B13: Compound 49 (T): targeting peptide plus 0P linker (peptide)
peptide: QXYQPLDELDXTLYDQFMLQQG
modifications: N-term DCB (dichlorobenzoyl) cap; C-term NH2 cap; AcK at 2; 0P linker on K11
B14: Compound 25 (T): targeting peptide plus 4P linker (peptide)
peptide: QNYQPLDELDXTLYDQFMLQQG
modifications: not fully specified; N-term acyl cap; C-term NH2 cap; 4P linker on K11
B15: Compound 27 (T): targeting peptide plus 0P linker (peptide)
peptide: QKYQPLDELDXTLYDQFMLQQG
modifications: not fully specified; N-term acyl cap; C-term NH2 cap; 0P linker on K11
B16: Compound 60 (T): targeting peptide plus 0P linker (peptide)
peptide: QHYQPLDELDXTLYDQFMLQQG
modifications: not fully specified; N-term acyl cap; C-term NH2 cap; 0P linker on K11
B17: Compound 59 (T): targeting peptide plus 0P linker (peptide)
peptide: QRYQPLDELDXTLYDQFMLQQG
modifications: not fully specified; N-term acyl cap; C-term NH2 cap; 0P linker on K11
B18: Compound 61 (T): targeting peptide plus 0P linker (peptide)
peptide: QXYQPLDELDXTLYDQFMLQQG
modifications: not fully specified; N-term acyl cap; C-term NH2 cap; NicK (nicotinyl lysine) at 2; 0P linker on K11
notes: only one IC50 printed, standing in column T
B19: Compound 23: Ang-2 binding peptide alone (peptide)
peptide: QNYQPLDELDKTLYDQFMLQQG-NH2
modifications: not fully specified (N-terminus); also: N-term acyl cap, acyl not given here
notes: not conjugated to linker or antibody
B20: Compound 43(a) (T): targeting peptide plus 0P linker (peptide)
peptide: QXYQPLDEXDXTLYDQFMLQQG
modifications: N-term ac; C-term am; AcK at 2; AcK at 9; 0P linker on K11
B21: Compound 53 (T): targeting peptide plus 0P linker (peptide)
peptide: QXYQPLDELDXTLYDQFMLQQG
modifications: N-term acyl cap; C-term NH2 cap; (ClBnCarbamate)K at 2; 0P linker on K11
notes: as for B18
B22: Compound 33 (T): targeting peptide plus 0P linker (peptide)
peptide: QK(Ac)YQPLDEK(0P linker)DETLYDQFMLQQG
modifications: not fully specified (N-terminus, C-terminus); printed as Q(AcK)Y QPL DEK(0P) DET LYD QFM LQQ G; reading uncertain
B23: Compound 50 (T): targeting peptide plus 0P linker (peptide)
peptide: QXYQPLDELDXTLYDQFMLQQG
modifications: N-term DFB (difluorobenzoyl) cap; C-term NH2 cap; AcK at 2; 0P linker on K11
B24: Compound 34 (T): targeting peptide plus 0P linker (peptide)
peptide: QXYQXLDELDXTLYDQFMLQQG
modifications: not fully specified; N-term acyl cap; C-term NH2 cap; AcK at 2; DHP at 5 (printed D(HP)); 0P linker on K11
B25: Compound 56 (T): targeting peptide plus 0P linker (peptide)
peptide: acyl-QNYQPLDELDK(0P linker)TL[Bpa]DQFMLQQG-NH2
modifications: reading uncertain; also: printed as QNY QPL DEL DK(0P)T L(BPA)D QFM LQQ G
B26: Compound 84 (T): targeting peptide plus 0P linker (peptide)
peptide: Ac-QK(Ac)YQPLDEK(Ac)DK(0P linker)TLYDQFMLQ-NH2
modifications: reading uncertain
notes: C-terminal truncation of 43(a) by 2 residues
B27: Compound 57 (T): targeting peptide plus 0P linker (peptide)
peptide: QNYQPLDELDK(0P linker)TL[Phe(4-COOH)]DQFMLQQG
modifications: not fully specified (N-terminus, C-terminus); printed as QNY QPL DEL DK(0P)T L(CF)D QFM LQQ G; reading uncertain
B28: Compound 86 (T): targeting peptide plus 0P linker (peptide)
peptide: Ac-QK(Ac)YQPLDEK(Ac)DK(0P linker)TLYDQFM-NH2
modifications: reading uncertain
notes: C-terminal truncation of 43(a) by 4 residues
B29: Compound 85 (T): targeting peptide plus 0P linker (peptide)
peptide: Ac-QK(Ac)YQPLDEK(Ac)DK(0P linker)TLYDQFML-NH2
modifications: reading uncertain
notes: C-terminal truncation of 43(a) by 3 residues
B30: Compound 35 (T): targeting peptide plus 0P linker (peptide)
peptide: QXYQXLDELDXTLYDQFMLQQG
modifications: not fully specified; N-term acyl cap; C-term NH2 cap; AcK at 2; HP at 5; 0P linker on K11
B31: Compound 30 (T): targeting peptide plus 0P linker (peptide)
peptide: QXYQPLDEXDXTLYDQFMLQQG
modifications: not fully specified; N-term acyl cap; C-term NH2 cap; AcK at 2; 0P linker on K9; AcK at 11
B32: Compound 24 (T): targeting peptide plus 4P linker (peptide)
peptide: QXYQPLDELDXTLYDQFMLQQG
modifications: not fully specified; N-term acyl cap; C-term NH2 cap; AcK at 2; 4P linker on K11
B33: Compound 44 (T): targeting peptide plus 0P linker (peptide)
peptide: QXYQPLDELDXTLFDQFMLQQG
modifications: not fully specified; N-term acyl cap; C-term NH2 cap; AcK at 2; 0P linker on K11
B34: Compound 36 (T): targeting peptide plus 0P linker (peptide)
peptide: QXYQPLDELDXTIYDQFMLQQG
modifications: not fully specified; N-term acyl cap; C-term NH2 cap; AcK at 2; 0P linker on K11
B35: Compound 37 (T): targeting peptide plus 0P linker (peptide)
peptide: QXYQPLDEIDXTLYDQFMLQQG
modifications: not fully specified; N-term acyl cap; C-term NH2 cap; AcK at 2; 0P linker on K11
B36: Compound 55 (T): targeting peptide plus 0P linker (peptide)
peptide: QXYQPLDELDXTLYDQFMLQQG
modifications: N-term acyl cap; C-term NH2 cap; AcK at 2; Dap at 11 carrying the 0P linker
B37: Compound 29 (T): targeting peptide plus 0P linker (peptide)
peptide: QXYQPLDELDXTLYDQFMLQQG
modifications: not fully specified; N-term acyl cap; C-term NH2 cap; AcK at 2; 0P linker on K11
B38: Compound 28 (T): targeting peptide plus 0P linker (peptide)
peptide: QNYQPLDELDXTLYDQFMLQQG
modifications: not fully specified; N-term acyl cap; C-term NH2 cap; 0P linker on K11
B39: Compound 39 (T): targeting peptide plus 0P linker (peptide)
peptide: QXYQPLDELDXTXYDQFMLQQG
modifications: not fully specified; N-term acyl cap; C-term NH2 cap; AcK at 2; 0P linker on K11; HF at 13

Columns and labels:
[1] = molecular target: T1, human angiopoietin-2 protein; assay: competition ELISA, coated Ang-2, competitor compound 43-0P-h38c2 10 ng/mL; T form
Procedure: Recombinant human Ang-2 was coated on microtiter plates at 0.5 μg/mL in 100 μL , overnight at 2-8° C. Plates were washed between all steps and all subsequent incubations occurred at room temperature. Plates were blocked with 250 μL per well of SuperBlock for 1-3 hours. Test compounds were pre-mixed with compound 43 linked to linker (as shown in FIG. 3) and h38c2 AT 10 ng/mL. Peptide mixtures in 100 μL were then added at the listed final concentrations, then plates sealed, and incubated for 1-2 hours. Bound compounds 43 was detected with 100 uL of a 1:20,000 dilution of HRP-labeled anti-human IgG reagent for solution.

[2] = molecular target: T1, human angiopoietin-2 protein; assay: competitive ELISA, coated Ang-2, 0.25 nM hTie-2-Fc; T form
Procedure: (§1) For competitive ELISA, human angiopoietin-2 protein and Tie-2-Fc (R&D Systems) were reconstituted without carrier protein. Mouse anti-human Tie-2 (Pharmingen) was used as the primary antibody and goat anti-mouse-IgG1-HRP (Pierce) was used as the secondary antibody. TMB substrate from Pierce was used.
(§2) High-binding half-well plates were coated with Ang-2 (100 ng/well) in 50 μl PBS and incubated at 4° C. overnight. Plates were washed three times with washing buffer (0.1% Tween 20, PBS, pH 7.4) and blocked with Superblock (Scytek), 100 μl/well at room temperature (“RT”) for 1 hour. After removing the blocking solution, 50 μl of an Ang-2 binding peptide compound (1 uM and 5× serial dilution) in the presence of 0.25 nM hTie-2-Fc using Superblock as diluent was added and incubated at RT for 2 hours. Plates were washed 3 times with washing buffer. Then, 50 ul of 0.1 ug/ml mouse anti-human Tie-2 diluted in Superblock added and incubated at RT for 1 hour. Following incubation, 50 ul of 1:5,000 dilution of goat anti-mouse IgG-HRP in Superblock was then added and incubated at RT for one hour. After washing 3 times, 50 μl (25 μl TMB+25 μl H₂O₂) was added, and incubated for 3-5 minutes. Color development was monitored and stopped with 25 μl of 2 M H₂SO₄. OD450 nm with a correction wavelength of 540 nm was measured.

[3] = molecular target: T1, human angiopoietin-2 protein; assay: competitive ELISA, coated Ang-2, 0.25 nM hTie-2-Fc; peptide alone
Procedure: as §1, §2

IC50 [2] | also measured | Binder
 | IC50 [1]: 111 nM | B1
32.3 nM |  | B2
134 nM |  | B3
1340 nM |  | B4
499 nM |  | B5
14.3 nM |  | B6
1340 nM |  | B7
82.4 nM |  | B8
82.7 nM |  | B9
24.7 nM |  | B10
292 nM |  | B11
43.3 nM |  | B12
28.4 nM |  | B13
300 nM |  | B14
29 nM |  | B15
214 nM |  | B16
177 nM |  | B17
83.9 nM |  | B18
 | IC50 [3]: 27.8 nM | B19
 | IC50 [1]: 139 nM | B20

IC50 [2] | also measured | Binder
147 nM |  | B21
370 nM |  | B22
33 nM |  | B23
224 nM |  | B24
92.2 nM |  | B25
 | IC50 [1]: 190 nM | B26
110 nM |  | B27
 | IC50 [1]: 847 nM | B28
 | IC50 [1]: 444 nM | B29
121 nM |  | B30
279 nM |  | B31
207 nM |  | B32
36.9 nM |  | B33
2410 nM |  | B34
1270 nM |  | B35
598 nM |  | B36
83.3 nM |  | B37
175 nM |  | B38
4890 nM |  | B39
